The results in this text go back to patent publication US20240376224A1 (University of California, published 2024).

Assay [1] deals with c-CDCP1. Briefly: BLI (Octet RED384). Background: BLI is a label-free optical method that tracks binding on a fibre tip over time.
The target of assay [2] is T1, c-CDCP1-Fc (Cut 1) (human, UniProt Q9H5V8 30-365; Q9H5V8 366-667).
T1 construct: Co-transfection of NTF and CTF-Fc plasmids; not shown: Fc domain
T1 sequence 1: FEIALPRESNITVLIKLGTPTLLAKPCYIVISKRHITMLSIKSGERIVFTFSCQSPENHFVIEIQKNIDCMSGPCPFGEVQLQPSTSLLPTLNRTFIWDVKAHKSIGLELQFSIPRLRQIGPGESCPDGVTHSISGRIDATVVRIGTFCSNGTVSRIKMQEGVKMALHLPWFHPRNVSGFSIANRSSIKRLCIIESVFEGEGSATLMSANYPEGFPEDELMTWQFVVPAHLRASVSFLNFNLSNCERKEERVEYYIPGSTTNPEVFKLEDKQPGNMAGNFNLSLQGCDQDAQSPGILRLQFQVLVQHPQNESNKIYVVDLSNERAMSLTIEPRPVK
T1 sequence 2: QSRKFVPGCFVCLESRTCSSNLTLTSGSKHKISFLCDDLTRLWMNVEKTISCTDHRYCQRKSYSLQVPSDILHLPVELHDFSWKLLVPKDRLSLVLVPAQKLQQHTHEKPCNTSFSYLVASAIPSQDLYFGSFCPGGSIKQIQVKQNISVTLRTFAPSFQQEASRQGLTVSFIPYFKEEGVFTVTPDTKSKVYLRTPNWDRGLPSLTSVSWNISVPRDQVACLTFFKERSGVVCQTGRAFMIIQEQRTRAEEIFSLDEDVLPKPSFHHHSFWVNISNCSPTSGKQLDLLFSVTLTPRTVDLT
Briefly: BLI (Octet), table of in vitro binding affinities. As for the experimental part: (§1) BLI experiments were performed using an Octet RED384 instrument (ForteBio). Biotinylated proteins were immobilized on a streptavidin (SA) biosensor and His-tagged proteins were immobilized on a Ni-NTA biosensor. Different concentrations of analyte in PBS pH 7.4+0.05% Tween-20+0.2% BSA (PBSTB) were used as analyte. Affinities (KDS) were calculated from a global fit (1:1) of the data using the Octet RED384 software.

Assay [3] deals with T2, c-CDCP1-Fc (Cut 2) (human, UniProt Q9H5V8 30-368; Q9H5V8 369-667).
T2 construct: Co-transfection of NTF and CTF-Fc plasmids; not shown: Fc domain
T2 sequence 1: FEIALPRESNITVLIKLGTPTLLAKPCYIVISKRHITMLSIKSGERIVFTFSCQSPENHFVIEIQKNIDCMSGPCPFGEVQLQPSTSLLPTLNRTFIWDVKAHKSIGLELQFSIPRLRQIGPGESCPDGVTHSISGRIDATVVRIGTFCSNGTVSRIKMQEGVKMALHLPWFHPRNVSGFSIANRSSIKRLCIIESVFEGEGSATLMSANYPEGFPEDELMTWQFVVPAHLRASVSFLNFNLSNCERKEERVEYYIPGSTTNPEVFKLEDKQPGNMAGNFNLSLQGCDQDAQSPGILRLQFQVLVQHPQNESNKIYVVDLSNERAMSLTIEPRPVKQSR
T2 sequence 2: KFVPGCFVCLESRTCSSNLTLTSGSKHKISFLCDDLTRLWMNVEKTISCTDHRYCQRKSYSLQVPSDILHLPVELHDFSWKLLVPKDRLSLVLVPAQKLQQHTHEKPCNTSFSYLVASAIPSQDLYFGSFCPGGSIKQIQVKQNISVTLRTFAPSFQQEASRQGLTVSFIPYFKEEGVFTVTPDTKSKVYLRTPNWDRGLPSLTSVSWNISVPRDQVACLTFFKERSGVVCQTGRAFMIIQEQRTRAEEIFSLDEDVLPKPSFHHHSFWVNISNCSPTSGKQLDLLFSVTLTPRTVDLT
Put plainly: BLI (Octet), table of in vitro binding affinities. As for the experimental part:
as §1

For assay [4], the target named is T3, c-CDCP1-Fc (Cut 3) (human, UniProt Q9H5V8 30-369; Q9H5V8 370-667).
T3 construct: Co-transfection of NTF and CTF-Fc plasmids; not shown: Fc domain
T3 sequence 1: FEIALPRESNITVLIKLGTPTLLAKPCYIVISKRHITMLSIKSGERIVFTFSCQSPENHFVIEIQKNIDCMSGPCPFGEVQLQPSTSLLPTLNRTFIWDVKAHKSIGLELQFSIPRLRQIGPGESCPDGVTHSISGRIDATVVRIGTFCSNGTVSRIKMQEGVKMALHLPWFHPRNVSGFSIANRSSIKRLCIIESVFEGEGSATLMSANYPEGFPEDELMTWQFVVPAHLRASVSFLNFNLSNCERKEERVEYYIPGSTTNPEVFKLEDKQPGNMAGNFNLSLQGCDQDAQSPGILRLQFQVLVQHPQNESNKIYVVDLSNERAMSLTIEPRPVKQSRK
T3 sequence 2: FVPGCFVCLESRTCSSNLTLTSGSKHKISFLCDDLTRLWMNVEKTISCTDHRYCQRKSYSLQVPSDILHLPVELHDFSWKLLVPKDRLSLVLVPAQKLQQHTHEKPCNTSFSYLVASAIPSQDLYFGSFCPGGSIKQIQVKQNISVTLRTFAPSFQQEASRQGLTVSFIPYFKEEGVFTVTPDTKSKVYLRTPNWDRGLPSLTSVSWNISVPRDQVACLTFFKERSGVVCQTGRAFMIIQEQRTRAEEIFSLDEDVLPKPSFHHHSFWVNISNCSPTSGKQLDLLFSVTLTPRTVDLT
Put plainly: BLI (Octet), table of in vitro binding affinities. As for the experimental part:
as §1

B1: CL03 IgG (antibody, V domains shown)
VH: EVQLVESGGGLVQPGGSLRLSCAASGFNFSSYSIHWVRQAPGKGLEWVASIYPYSGSTYYADSVKGRFTISADTSKNTAYLQMNSLRAEDTAVYYCARQSHSYYSHTWWVSYGMDYWGQGTLVTVSS
VL: DIQMTQSPSSLSASVGDRVTITCRASQSVSSAVAWYQQKPGKAPKLLIYSASSLYSGVPSRFSGSRSGTDFTLTISSLQPEDFATYYCQQSGQRPITFGQGTKVEIKR
notes: also called IgG CL03
The term Kd denotes a measure of binding affinity in units of concentration. The low end stands for higher affinity, the high end for lower affinity. What is called koff is the rate constant with which the complex falls apart. Lower therefore signals slow dissociation. Broadly, the kon is the rate constant with which the complex forms. A low value points to slow association. On to B1, for which the Kd in assay [1] was 0.15 to 0.84 nM; in assay [2] it was 0.84 nM; in assay [3], 0.37 nM; in assay [4] it was 0.15 nM. In addition, the off-rate constant (koff) in assay [2] is 0.000535 s⁻¹; in assay [3], 0.000174 s⁻¹; in assay [4], 7.43e-05 s⁻¹. The association rate constant (kon) in assay [2] was found to be 640000 M⁻¹ s⁻¹; in assay [3] it was 473000 M⁻¹ s⁻¹; in assay [4], 492000 M⁻¹ s⁻¹.
